Consider 5 molecules from publication PMC5551578 (2017).

The EC50 is the concentration giving half of the maximal effect. A low value points to an effect from little substance.

Sequences and labels used below:
T1: tetanus toxoid (UniProt P04958 1-1315)
T1 chain: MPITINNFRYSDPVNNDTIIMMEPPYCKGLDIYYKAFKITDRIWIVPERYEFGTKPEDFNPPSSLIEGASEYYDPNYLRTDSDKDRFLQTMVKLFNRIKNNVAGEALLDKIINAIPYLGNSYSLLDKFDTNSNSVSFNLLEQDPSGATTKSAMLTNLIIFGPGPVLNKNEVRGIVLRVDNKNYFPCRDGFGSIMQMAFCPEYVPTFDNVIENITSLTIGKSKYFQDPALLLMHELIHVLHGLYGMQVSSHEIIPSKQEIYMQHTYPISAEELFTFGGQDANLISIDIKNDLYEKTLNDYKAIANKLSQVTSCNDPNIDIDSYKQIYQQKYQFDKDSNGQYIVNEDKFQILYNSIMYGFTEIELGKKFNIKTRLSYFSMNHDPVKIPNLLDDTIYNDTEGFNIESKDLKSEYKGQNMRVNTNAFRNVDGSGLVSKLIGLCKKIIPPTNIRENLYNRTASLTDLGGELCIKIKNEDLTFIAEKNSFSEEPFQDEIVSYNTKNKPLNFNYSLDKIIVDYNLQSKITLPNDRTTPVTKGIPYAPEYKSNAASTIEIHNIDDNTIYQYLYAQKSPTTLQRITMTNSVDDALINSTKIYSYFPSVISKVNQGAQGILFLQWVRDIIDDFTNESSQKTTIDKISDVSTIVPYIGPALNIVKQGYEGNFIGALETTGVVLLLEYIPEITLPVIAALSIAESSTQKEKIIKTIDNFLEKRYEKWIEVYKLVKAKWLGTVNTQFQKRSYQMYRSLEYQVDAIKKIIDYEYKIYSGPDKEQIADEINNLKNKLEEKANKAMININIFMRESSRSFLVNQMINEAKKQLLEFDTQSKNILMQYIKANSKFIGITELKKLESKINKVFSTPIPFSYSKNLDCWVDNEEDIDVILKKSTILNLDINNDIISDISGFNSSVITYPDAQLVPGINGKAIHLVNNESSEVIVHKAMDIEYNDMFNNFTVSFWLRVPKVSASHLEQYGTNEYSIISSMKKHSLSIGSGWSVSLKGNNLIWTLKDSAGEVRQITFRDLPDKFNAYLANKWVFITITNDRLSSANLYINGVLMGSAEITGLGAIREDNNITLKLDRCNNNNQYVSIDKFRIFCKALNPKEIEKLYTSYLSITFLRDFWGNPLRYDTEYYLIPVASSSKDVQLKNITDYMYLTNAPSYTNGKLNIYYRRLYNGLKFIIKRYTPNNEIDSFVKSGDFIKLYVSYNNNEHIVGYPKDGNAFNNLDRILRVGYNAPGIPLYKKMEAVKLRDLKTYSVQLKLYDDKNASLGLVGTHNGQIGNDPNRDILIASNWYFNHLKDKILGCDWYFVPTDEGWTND

B1: TT-Ab10 (antibody, V domains shown)
VH: EVQLVESGGGLVQPGGSLRVSCGASGFTFANFWMSWVRQAPGKGLEWVANINQDGNERKYVDSVKGRFTISRDNDKNSLYLQMNSLRAEDTAVYFCAREYGSYWRTYYFDDWGQGTLVTVSS
VL: DIVMTQSPATLSLSPGERATLSCRASQSVSNYLAWYQQKPGQAPRLLIYDASNRASGTPARFSGSGFGTDFTLTISSLDPEDFAVYYCQQGSNWLTFGGGTKVEIK
B2: TT-Ab7 (antibody, V domains shown)
VH: EVQLVESGGGWVQPGGSLRLSCAASGFTFNSFGSYGMSWVRQAPGKGLEWVSHISASGAATYYADSVKGRFTISRDNSKNTLLLQMNDLRGEDTATYYCARSVQQYLGLLGYWGQGTLVTVSS
VL: QSVLTQSPSASASLGATVKLTCTLSSGHTNYAIAWHQLQPQKAPRYLLKISNDGSHKRGDGIPDRFSGSSSGAERYLTISSLQSEDEAEYYCQTWGAGMGMFGGGTKLTVL
B3: TT-Ab4 (antibody, V domains shown)
VH: EVQLVQSGAEMKKPGSSVKVSCRMSGGKFNNYAMSWVRQAPGQGLEWVGGIIPVLGTANYAQKFQDRVAITADKSTNTAYMELSSLRSDDTAVYYCARVWGTVVTQGPSQVQYNHYGMDVWGQGTTVTVSS
VL: DIQLTQSPSSLSASVGDRVTITCRATQSISSSLNWYQHKPGKAPNLLISAASNLQSGVPSRFSGSGSRTDFTLTITNLQPEDFATYYCQQSYTTPLTFGGGTKVEIK
B4: TT-Ab12 (antibody, V domains shown)
VH: QVQLQESGPGLVKPSETLSLTCNVSGASISRYYWAWIRQPPGKGLEWIGYIYDSGTTTYNTSLKSRVTISRDTSKNQFSLNMMSVTAADTAVYYCARARYYYDSTGYFYGWLDPWGQGRLVTVSF
VL: DIQMTQSPSTLSASVGDRVTITCRASQSINIWLAWYQQRPGKAPDLLIYKASTLQSGVPSRFSGSGSGTEFTLTISSVQPDDFATYYCQQYKSYSCSFGQGTKVEIN
B5: TT-Ab9 (antibody, V domains shown)
VH: EVQLVESGGSLVQPGGSLRLSCVGTGFTFNTYWMSWVRQAPGKGLEWVANIKQDGREKHYVDSVMGRFTVSRDNAMNALYLQVNSLRVEDTAVYYCARGMTAWSLGGYQYDYWGQGTQVTVSS
VL: DIQMTQSPSSLSASVGDTVTITCRASQGIRSDLGWYQQRPGKAPKLLVYTASTLQTGVPSRFSGSGFGTDFTLTISSLQPEDFATYYCLQNYNYPRTFGQGTKVEIK

For the assay, the target named is T1, tetanus toxoid. The assay is described as follows: ELISA. (In general: ELISA stands for enzyme-linked immunosorbent assay.)
In the case of B1, the EC50 worked out at 869 nM.

In turn, B2 had an EC50 of 655 nM.

B3 returned an EC50 of 1060 nM.

The molecule B4 displayed an EC50 of 228 nM. This EC50 is about 4.6-fold lower than that of the molecule before.

Consider B5, for which the EC50 stood at 1050 nM.
